Test results published in article doi:10.1101/774737.

Biological target: dynein intermediate chain (DIC), endogenous, human iPSC-derived motor neurons (human (endogenous in iPSC-derived motor neurons)) (UniProt O14576)
Experiment: proximity ligation

UniProt O14576, sequence (O14576 whole entry): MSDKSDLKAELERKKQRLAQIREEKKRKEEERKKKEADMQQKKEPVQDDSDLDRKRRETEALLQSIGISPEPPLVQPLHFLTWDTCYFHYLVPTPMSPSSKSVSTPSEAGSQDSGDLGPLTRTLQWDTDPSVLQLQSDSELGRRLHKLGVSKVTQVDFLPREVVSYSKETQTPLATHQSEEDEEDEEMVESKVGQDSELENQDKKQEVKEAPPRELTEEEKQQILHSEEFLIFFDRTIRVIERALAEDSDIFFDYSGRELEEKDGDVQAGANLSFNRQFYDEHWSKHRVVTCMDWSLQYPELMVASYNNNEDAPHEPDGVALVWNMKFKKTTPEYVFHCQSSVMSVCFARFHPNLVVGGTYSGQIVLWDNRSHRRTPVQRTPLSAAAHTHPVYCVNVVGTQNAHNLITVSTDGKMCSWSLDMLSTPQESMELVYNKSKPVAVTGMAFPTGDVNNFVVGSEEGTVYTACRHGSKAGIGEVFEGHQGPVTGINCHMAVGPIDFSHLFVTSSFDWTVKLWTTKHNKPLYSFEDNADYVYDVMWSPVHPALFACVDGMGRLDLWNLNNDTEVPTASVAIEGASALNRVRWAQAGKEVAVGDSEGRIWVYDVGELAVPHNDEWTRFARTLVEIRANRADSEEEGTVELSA

CRMP4, endogenous, human iPSC-derived motor neurons (from UniProt Q14195 1-570) (natural protein)
PLA puncta (C9orf72 iPSC-derived MN distal axons, without peptides): 8.9
